{"source": "paper doi:10.1101/2023.09.18.557803", "about": "“Structure of the portal complex from Staphylococcus aureus pathogenicity island 1 transducing particles in situ and in solution” (bioRxiv, 2023)", "molecules": {"B1": {"name": "bacteriophage 80α capsid protein (gp47) in mature SaPI1 capsids (natural protein, Staphylococcus aureus bacteriophage 80α, UniProt A4ZFB3 15-324, looked up)", "chain": "ASNNVKPQVFNPDNVMMHEKKDGTLMNEFTTPILQEVMENSKIMQLGKYEPMEGTEKKFTFWADKPGAYWVGEGQKIETSKATWVNATMRAFKLGVILPVTKEFLNYTYSQFFEEMKPMIAEAFYKKFDEAGILNQGNNPFGKSIAQSIEKTNKVIKGDFTQDNIIDLEALLEDDELEANAFISKTQNRSLLRKIVDPETKERIYDRNSDSLDGLPVVNLKSSNLKRGELITGDFDKLIYGIPQLIEYKIDETAQLSTVKNEDGTPVNLFEQDMVALRATMHVALHIADDKAFAKLVPADKRTDSVPGEV", "notes": "capsid protein gp47 of Staphylococcus aureus bacteriophage 80α, cut product: the first 14 residues are removed by the Prp protease; domains printed as N-arm 15-67, E-loop 68-104, P-domain 105-167 and 248-307, A-domain 168-247 and 308-324; residues 16-313 modelled; 240 copies in the icosahedral T=4 capsid; in the real virion five subunits at one vertex are replaced by the portal; also called CP; …"}}, "key": {"[1]": {"biological_target": "bacteriophage 80α portal protein (gp42) in situ in SaPI1 virions (Staphylococcus aureus bacteriophage 80α)", "experiment": "cryo-EM structure; focused reconstruction with C12 symmetry of the portal complex in situ in purified full and empty SaPI1 virions (assembled in S. aureus), after signal subtraction of the capsid; 3.2 Å (full) and 3.5 Å (empty)"}, "[2]": {"biological_target": "bacteriophage 80α portal protein (gp42), expressed in E. coli with a C-terminal hexahistidine tag (Staphylococcus aureus bacteriophage 80α)", "experiment": "cryo-EM structure; portals expressed in E. coli, in solution (25 mM HEPES pH 7.4, 0.1 M NaCl); 2D classification and C13 reconstruction in RELION-3, 2.4 Å"}, "[3]": {"biological_target": "the molecule itself", "experiment": "cryo-EM structure; icosahedral reconstruction of full and empty capsids of purified SaPI1 virions (assembled in S. aureus); 3.1 Å (full, used to model CP) and 3.2 Å (empty)"}}}
{"molecule": "bacteriophage 80α portal protein (gp42) in situ in SaPI1 virions (natural protein)", "values": [{"measurement": "stoichiometry N", "setting": "[1]", "value": 12}]}
{"molecule": "bacteriophage 80α portal protein (gp42), expressed in E. coli with a C-terminal hexahistidine tag (natural protein)", "values": [{"measurement": "stoichiometry N", "setting": "[2]", "value": 13}]}
{"molecule": "B1", "values": [{"measurement": "stoichiometry N", "setting": "[3]", "value": 240}]}
